US20260232732A1 (FUNDACI INSTITUT DE RECERCA CONTRA LA LEUC MIA JOSEP …, published 2026)
Each block holds one binder with its values, some of them ahead of it. Where no end group is shown, it is not given here. The star is where a group is joined. Biotin = O=C1N[C@H]2[C@H](CS[C@H]2CCCCC(=O)*)N1

How the values were obtained:
[1] = target: T1, biotin-peptide MEDYVNFNFT (human); assay: ELISA biotin-peptide; scFv 10 ug/mL; repII
T1 peptide: Biotin-MEDYVNFNFT
Experimental: (§1) The peptides were synthesized naked or with a N-terminal Biotin modification with a purity of >98%. All four scFvs were verified by ELISA that can be detected with anti-His antibodies. ELISA was performed for scFv-peptide binding validation. Briefly, naked peptides were coated (50 μg/mL) in 0.58M carbonate-bicarbonate buffer pH9.5, 100 μL/well, 4° C. O/N. Then after blocking (3% BSA-PBS, 300 μL/well 37° C. 1.5 h) and washing (PBS+Tween-20 0.05% v/v (0.05% PBST), wells were incubated with each purified scFv antibody at concentration of 1 μg/mL in PBS at 37° C. 1 h. After washing (0.05% PBST), wells were incubated with secondary antibodies (goat anti-His IgG-HRP) in PBS, 37° C., 30 min. After washing, and incubation with TMB substrate, reactions were stopped with 2M HCl and reading was quantified at OD450.
(§2) ELISA with biotin-conjugated peptides (5 μg/mL) was performed very similar to described above with minor modifications.
(§3) A full curve ELISA was performed for each positive scFv/biotin-peptide pair in order to confirm previous results. Tables 15-17 show ELISA results of the dose-dependent full curve for each positive peptide with scFv “CCR9_HUM”, “Comp-2” and “Comp-3”, respectively.

[2] = target: T2, biotin-peptide SSMEDYVNFN (human); assay: ELISA biotin-peptide; scFv 10 ug/mL; repII
T2 peptide: Biotin-SSMEDYVNFN
Experimental: as §1, §2, §3

[3] = target: T3, biotin-peptide SMEDYVNFNF (human); assay: ELISA biotin-peptide; scFv 10 ug/mL; repII
T3 peptide: Biotin-SMEDYVNFNF
Experimental: as §1, §2, §3

[4] = target: T4, human CCR9 on cells (MOLT-4, SupT1) (human, UniProt P51686 1-369); assay: flow cytometry on 300.19 cells overexpressing human CCR9 against CCR9-negative 300.19 WT cells, detection with anti-mouse-IgG(H+L) A647 [Cont.) B]
T4 construct: whole, on cells; also called C-C chemokine receptor type 9; CDw199
T4 sequence (looked up): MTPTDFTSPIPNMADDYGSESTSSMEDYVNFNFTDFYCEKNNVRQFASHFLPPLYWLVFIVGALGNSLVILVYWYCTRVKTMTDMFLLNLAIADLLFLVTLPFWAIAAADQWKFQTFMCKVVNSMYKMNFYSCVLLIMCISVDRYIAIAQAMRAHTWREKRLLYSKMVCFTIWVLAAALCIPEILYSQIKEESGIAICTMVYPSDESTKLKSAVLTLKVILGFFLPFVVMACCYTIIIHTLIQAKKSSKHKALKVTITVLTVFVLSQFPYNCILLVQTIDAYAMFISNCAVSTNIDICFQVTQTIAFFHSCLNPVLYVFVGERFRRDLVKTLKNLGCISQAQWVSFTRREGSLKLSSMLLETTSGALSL

[5] = target: T5, Peptide 2, non-conjugated (GSESTSSMED-C) (human); assay: ELISA; Ab 0.25 ug/mL; repII
T5 construct: With the extra C-terminal Cys
T5 peptide: GSESTSSMEDC
Experimental: (§4) In brief, plates with each non-conjugated peptide (50 μg/mL) or BSA-conjugated peptide (5 μg/mL) were coated in 0.58M carbonate-bicarbonate buffer pH9.5, 100 μL/well, at 4° C. […] After washing, wells were incubated with the 3, 3′,5,5′-Tetramethylbenzidine (TMB) HRP substrate and reactions were stopped with 2M HCl and OD450 was recorded.

[6] = target: T6, Peptide 3, non-conjugated (SSMEDYVNFN-C) (human); assay: ELISA; Ab 0.25 ug/mL; repII
T6 construct: With the extra C-terminal Cys
T6 peptide: SSMEDYVNFNC
Experimental: as §4

[7] = target: T7, Peptide 4, non-conjugated (SMEDYVNFNF-C) (human); assay: ELISA; Ab 0.25 ug/mL; repII
T7 construct: With the extra C-terminal Cys
T7 peptide: SMEDYVNFNFC
Experimental: as §4

[8] = target: T8, Peptide 3-BSA (SSMEDYVNFN-C conjugated to BSA) (human); assay: ELISA; Ab 0.25 ug/mL; repII
T8 peptide: SSMEDYVNFNC(BSA)
Experimental: as §4

[9] = target: T9, Peptide 4-BSA (SMEDYVNFNF-C conjugated to BSA) (human); assay: ELISA; Ab 0.25 ug/mL; repII
T9 peptide: SMEDYVNFNFC(BSA)
Experimental: as §4

[10] = target: T10, Peptide 2-BSA (GSESTSSMED-C conjugated to BSA) (human); assay: ELISA; Ab 0.25 ug/mL; repII
T10 peptide: GSESTSSMEDC(BSA)
Experimental: as §4

[11] = target: T11, Peptide 1, non-conjugated (MADDYGSEST-C) (human); assay: ELISA; Ab 0.25 ug/mL; repII
T11 construct: With the extra C-terminal Cys
T11 peptide: MADDYGSESTC
Experimental: as §4

[12] = target: T12, antigen peptide-BSA (immunisation peptide #1 MADDYGSESTSSMEDYVNFNF-C conjugated to BSA) (human, extra C-terminal Cys conjugated to BSA); assay: ELISA; Ab 0.25 ug/mL; repII
T12 construct: also called Positive control antigen peptide-BSA; MADDY peptide
T12 peptide: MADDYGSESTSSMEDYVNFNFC
Experimental: as §4

[13] = target: T13, BSA (negative control coating) (bovine, UniProt P02769 25-607); assay: ELISA; Ab 0.25 ug/mL; repII
T13 construct: also called Negative control BSA
Experimental: as §4

[14] = target: T14, Peptide 1-BSA (MADDYGSEST-C conjugated to BSA) (human); assay: ELISA; Ab 0.25 ug/mL; repII
T14 peptide: MADDYGSESTC(BSA)
Experimental: as §4

[15] = target: T6, Peptide 3, non-conjugated (SSMEDYVNFN-C); assay: ELISA; Ab 0.125 ug/mL; repI
Experimental: as §4

[16] = target: T7, Peptide 4, non-conjugated (SMEDYVNFNF-C); assay: ELISA; Ab 0.125 ug/mL; repI
Experimental: as §4

[17] = target: T8, Peptide 3-BSA (SSMEDYVNFN-C conjugated …); assay: ELISA; Ab 0.125 ug/mL; repI
Experimental: as §4

[18] = target: T9, Peptide 4-BSA (SMEDYVNFNF-C conjugated …); assay: ELISA; Ab 0.125 ug/mL; repI
Experimental: as §4

[19] = target: T10, Peptide 2-BSA (GSESTSSMED-C conjugated …); assay: ELISA; Ab 0.125 ug/mL; repI
Experimental: as §4

[20] = target: T12, antigen peptide-BSA (immunisation …); assay: ELISA; Ab 0.125 ug/mL; repI
Experimental: as §4

T13 sequence (P02769 25-607 limits assumed): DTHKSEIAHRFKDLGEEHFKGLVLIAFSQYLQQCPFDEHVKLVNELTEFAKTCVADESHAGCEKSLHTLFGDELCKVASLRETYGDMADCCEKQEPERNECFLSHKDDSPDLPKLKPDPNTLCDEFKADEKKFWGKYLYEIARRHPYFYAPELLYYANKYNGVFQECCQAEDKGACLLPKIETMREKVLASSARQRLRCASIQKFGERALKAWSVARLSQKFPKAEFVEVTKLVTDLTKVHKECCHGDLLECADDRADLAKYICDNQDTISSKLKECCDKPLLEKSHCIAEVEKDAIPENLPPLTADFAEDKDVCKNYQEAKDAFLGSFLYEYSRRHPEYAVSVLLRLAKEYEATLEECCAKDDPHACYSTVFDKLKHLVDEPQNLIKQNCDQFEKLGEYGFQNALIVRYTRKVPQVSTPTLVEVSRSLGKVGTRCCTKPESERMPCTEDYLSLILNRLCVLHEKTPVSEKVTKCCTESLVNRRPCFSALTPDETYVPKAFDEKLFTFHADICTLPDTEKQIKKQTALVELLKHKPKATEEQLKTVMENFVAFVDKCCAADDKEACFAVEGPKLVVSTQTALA

- OD450 [1]: 1.79 OD
- OD450 [2]: 1.87 OD
- OD450 [3]: 1.85 OD
B1: CCR9_HUM2 scFv (humanized anti-CCR9 scFv, SEQ ID NO: 17 with C-terminal 6xHis tag) (scFv)
scFv: QVQLVQSGAEVKKPGASVKVSCTASGYSFTDYIIYWVKQAHGQSLEWMGYIDPNNYNTRYSQKFQGKVTITVDKSSTSAYMELNSLTSDDTAVYYCARDVYWGQGTTVTVSSGGGGSGGGGSGGGGSGGGGSDVVMTQTPLSLSVTPGQPASISCRSSQSLVHSNGKTYLQWYLQKPGQSPKLLIYKVSNRFSGVPDRFSGSGSGTDFTLKISRVEAEDVGVYFCAQSTHVWTFGGGTKVEIKRAHHHHHH

- binding result [4]: binds
- OD450 [5]: 0.01 OD
- OD450 [6]: 1.8 OD
- OD450 [7]: 2.24 OD
- OD450 [8]: 2.05 OD
- OD450 [9]: 2.53 OD
- OD450 [10]: 0.02 OD
- OD450 [11]: 0.02 OD
- OD450 [12]: 2.42 OD
- OD450 [13]: 0.02 OD
- OD450 [14]: 0.02 OD
- OD450 [15]: 1.77 OD
- OD450 [16]: 1.69 OD
- OD450 [17]: 1.97 OD
- OD450 [18]: 2.23 OD
- OD450 [19]: 0.01 OD
- OD450 [20]: 2.15 OD
B2: anti-CCR9 antibody clone 115 (murine, from hybridoma #115) (antibody, V domains shown)
VH: QVQLKQSGPELVKPGTSVRVSCTASGYSFTDYIIYWVKQSHGRSLEWIGYIDPNNYNTRYSQKFKGKATLTVDKSSTSAFMHLNSLTSDDSAVYYCARDVYWGQGTTLTVSS
VL: DVVMTQTPLSLTVSLGDQASISCRSSQSLVHSNGKTYLQWYLQKPGQSPKLLIYKVSNRFSGVPDRFSGSGSGTDFTLKISRVEAEDLGVYFCAQSTHVWTFGGGTKLEIKR
notes: Mouse IgG1
